“Also recorded” adds a separate entry of the source. Marks after values point to notes of the source that are not given here. One block for each molecule: values may come before it.
How the values were obtained:
CXCR4 = CXCR4 (Homo sapiens, UniProt P61073); test: CRE/β-galactosidase reporter gene assay in HEK293T cells expressing CXCR4; format: cell-based; conditions: for Schild slope: log(CR-1) vs -log[Nanobody]
Protocol: HEK293T cells were maintained at 37° C. in a humidified 5% CO2, 95% air atmosphere in Dulbecco's modified Eagle's medium (DMEM) containing 2 mM L-glutamine, 50 IU/ml penicillin, 50 μg/ml streptomycin, and 10% (v/v) fetal calf serum. Jurkat cells were cultured in a humidified 5% CO2, 95% air atmosphere in a 1:1 mixture of Dulbecco's modified Eagle's medium (DMEM) and Ham's F12 medium containing 2 mM L-glutamine, 50 IU/ml penicillin, 50 μg/ml streptomycin, and 10% (v/v) fetal calf serum. […] [^125 I]-Labelling— Radiolabeling of Nanobodies with ^125I was performed using the Iodo-gen method (Pierce, Rockford, Ill.) according to the manufacturer's protocol. ^125I-labeled Nanobodies was separated from free iodine (>99%) using a Sephadex G-25 gel filtration column (Amersham Biosciences, Piscataway, N.J.). […] Competition Binding Assays— Membranes from HEK293T cells transiently expressing CXCR3 or CXCR4 were prepared 48 h after transfection as follows. Cells were washed and scraped from the cell culture dishes with ice-cold PBS containing 1 mm EDTA. The scraped cells were pelleted at 1500×g for 10 min at 4° C. The pellet was washed and then resuspended in ice-cold membrane buffer (15 mM Tris, pH 7.5, 1 mM EGTA, 0.3 mM EDTA, and 2 mM MgCl2). The cell suspension was homogenized by 10 strokes at 1200 rpm using a Teflon-glass homogenizer and rotor and further subjected to three freeze-thaw cycles using liquid nitrogen. Membranes were separated by centrifugation at 40,000 g for 25 min at 4° C. The membrane pellet was washed and resuspended in ice-cold Tris-sucrose buffer (20 mM Tris, pH 7.4, and 250 mM sucrose) and frozen in liquid nitrogen. The total protein was determined using a Bradford assay (Bio-Rad). Periplasmas (1:10) or ligands were pre-incubated with membranes in binding buffer (50 mM HEPES (pH 7.4), 1 mM CaCl2, 5 mM MgCl2, 100 mM NaCl, 0.5% bovine serum albumin) supplemented with 0.5% BSA for 1 h at 22° C. before the addition of [^125I]-CXCL12 (40 pM) or [^125I]-238D2 (3 nM) or [^125I]-238D4 (3 nM) for additional 2 h at 22° C. […] Membranes were then harvested over polyethylenimine (0.5%)-treated Whatman GF/C filter plates and washed three times with ice cold binding buffer containing 500 mM NaCl. Plates were counted by liquid scintillation. Inositol Phosphate Accumulation Assay— 24 hours post transfection with pcDNA3.1-CXCR4 and pcDNA1-HA-mG {alpha} qi5 (see Verzijl et al, 2008 supra), 250.000 cells were seeded into 24-wells plates and labelled overnight using inositol-free minimal essential medium supplemented with 1 μCi myo-[2-^3H]-inositol. The next day, the cells were washed once to remove not incorporated myo-[2-^3H]-inositol. […] In agonist experiments, the cells were directly stimulated with test compounds and LiCl (10 mM) in assay buffer for 2 h at 37° C. The stimulation was stopped by aspirating the stimulation medium and adding ice-cold 10 mM formic acid. The accumulated inositol phosphates were isolated by anion exchange chromatography and counted by liquid scintillation. CRE Reporter Gene Assay— HEK239T cells were transfected with pCRE/β-galactosidase (Chen W, Shields T S, Stork P J S, Cone R D (1995) Anal Biochem 226:349-354) and plasmids (pcDEF3 or pcDNA3.1) encoding the indicated receptors. 40,000 transfected cells per well were seeded into 96 well plates and grown in DMEM supplemented with 10% fetal calf serum. The medium was replaced 32 h after transfection by serum-free DMEM supplemented with 0.5% bovine serum albumin and ligands as indicated. Following 16 h of ligand incubation, the medium was removed, the cells were lysed in 100 μl of assay buffer (100 mM sodium phosphate buffer at pH 8.0, 4 mM 2-nitrophenol-β-D-pyranoside, 0.5% Triton X-100, 2 mM MgSO4, 0.1 mM MnCl2, and 40 mM β-mercaptoethanol) and incubated at room temperature. […]

CXCR2 = biological target: T1, CXCR2 (Homo sapiens, UniProt P25025); test: CRE/β-galactosidase reporter gene selectivity screen, CXCR2; format: cell-based; conditions: up to 2.5, forskolin 3 μM, agonist at 50-80% Emax
T1 sequence (P25025 1-360): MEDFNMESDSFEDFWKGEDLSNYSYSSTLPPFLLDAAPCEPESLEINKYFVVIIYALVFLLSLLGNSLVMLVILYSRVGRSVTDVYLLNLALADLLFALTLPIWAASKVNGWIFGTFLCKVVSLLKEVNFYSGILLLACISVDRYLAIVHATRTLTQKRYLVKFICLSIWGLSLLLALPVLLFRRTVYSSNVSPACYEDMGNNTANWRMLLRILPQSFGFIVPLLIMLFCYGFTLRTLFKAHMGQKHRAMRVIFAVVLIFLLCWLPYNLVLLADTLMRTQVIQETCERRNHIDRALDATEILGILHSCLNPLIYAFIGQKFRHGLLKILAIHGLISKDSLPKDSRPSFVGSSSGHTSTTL
Protocol: Data are shown as means±S.E.M. (n=2-3).
HEK293T cells were maintained at 37° C. in a humidified 5% CO2, 95% air atmosphere in Dulbecco's modified Eagle's medium (DMEM) containing 2 mM L-glutamine, 50 IU/ml penicillin, 50 μg/ml streptomycin, and 10% (v/v) fetal calf serum. Jurkat cells were cultured in a humidified 5% CO2, 95% air atmosphere in a 1:1 mixture of Dulbecco's modified Eagle's medium (DMEM) and Ham's F12 medium containing 2 mM L-glutamine, 50 IU/ml penicillin, 50 μg/ml streptomycin, and 10% (v/v) fetal calf serum. […] [^125 I]-Labelling— Radiolabeling of Nanobodies with ^125I was performed using the Iodo-gen method (Pierce, Rockford, Ill.) according to the manufacturer's protocol. ^125I-labeled Nanobodies was separated from free iodine (>99%) using a Sephadex G-25 gel filtration column (Amersham Biosciences, Piscataway, N.J.). […] Competition Binding Assays— Membranes from HEK293T cells transiently expressing CXCR3 or CXCR4 were prepared 48 h after transfection as follows. Cells were washed and scraped from the cell culture dishes with ice-cold PBS containing 1 mm EDTA. The scraped cells were pelleted at 1500×g for 10 min at 4° C. […] The total protein was determined using a Bradford assay (Bio-Rad). […] Plates were counted by liquid scintillation. […] The accumulated inositol phosphates were isolated by anion exchange chromatography and counted by liquid scintillation. […]

[1] = HEK293T-CXCR4-CREbgal/0.01-100 nM CXCL12, mean ± S.E.M.

Sequence of CXCR4 (P61073 whole entry): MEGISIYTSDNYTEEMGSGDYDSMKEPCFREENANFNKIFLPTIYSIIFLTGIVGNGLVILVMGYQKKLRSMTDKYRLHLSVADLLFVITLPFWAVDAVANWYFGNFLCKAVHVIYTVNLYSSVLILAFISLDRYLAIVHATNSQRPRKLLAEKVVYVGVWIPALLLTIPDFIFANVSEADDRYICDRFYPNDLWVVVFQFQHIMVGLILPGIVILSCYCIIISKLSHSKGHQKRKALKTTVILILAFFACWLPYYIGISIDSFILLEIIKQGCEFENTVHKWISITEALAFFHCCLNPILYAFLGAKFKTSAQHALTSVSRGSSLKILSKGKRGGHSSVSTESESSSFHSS

mode of antagonism of the CXCL12-induced activation of signal transduction (CXCR4): competitive antagonism | Imax (%), CRE activation (CXCR4; [1]): 104 ± 5^a % | pKi or pIC50, CRE activation (CXCR4; [1]): 7.64 ± 0.16^b | pKB (CXCR4; from Schild plot data, CXCL12-induced reporter gene response): 7.64±0.16 | Schild slope (CXCR4): 0.91±0.20
B1: 238D2: Nanobody (VHH) raised against human CXCR4, SEQ ID NO: 238 (protein)
VHH: EVQLVESGGGLVQTGGSLRLSCAASGFTFSSYAMSWVRQAPGKGLEWVSGIKSSGDSTRYAGSVKGRFTISRDNAKNMLYLQMYSLKPEDTAVYYCAKSRVSRTGLYTYDNRGQGTQVTVSS
modifications: Nanobody, Nanobody constructs or fragments thereof
agonist activity in the absence of CXCL12, CRE reporter (CXCR4): No agonist activity; also recorded: did not show any agonist activity | effect on agonist-induced response at CXCR2 (CXCR2): do not act as agonists or antagonists; also recorded: do not alter

mode of antagonism of the CXCL12-induced activation of signal transduction (CXCR4): competitive antagonism | Imax (%), CRE activation (CXCR4; [1]): 90 ± 15^a % | Schild slope (CXCR4): 0.71±0.17
B2: 238D4: Nanobody (VHH) raised against human CXCR4, SEQ ID NO: 239 (protein)
VHH: EVQLMESGGGLVQAGGSLRLSCAASGRTFNNYAMGWFRRAPGKEREFVAAITRSGVRSGVSAIYGDSVKDRFTISRDNAKNTLYLQMNSLKPEDTAVYTCAASAIGSGALRRFEYDYSGQGTQVTVSS
modifications: Nanobody, Nanobody constructs or fragments thereof
agonist activity in the absence of CXCL12, CRE reporter (CXCR4): No agonist activity; also recorded: did not show any agonist activity | effect on agonist-induced response at CXCR2 (CXCR2): do not act as agonists or antagonists; also recorded: do not alter

Reference: patent US9212226B2, “Amino acid sequences directed against CXCR4 and other GPCRs and compounds comprising the same” (Ablynx N.V., priority 2008, dated 2015)
